Reference: publication PMC11267847

Assays:
Experiment in all cases: EMSA
Settings in all cases: EMSA kit (Biyuntian): 50 ng biotin-labeled DNA, 2 uL binding buffer, 2 ug protein; competitors 5 ug unlabeled DNA; buffer composition, pH and temperature not …
[1] = target: T1, Loc1p (Pichia pastoris (Komagataella phaffii), cloned from P. pastoris genome, strain SMD1168?) (UniProt C4QX18)
T1 sequence: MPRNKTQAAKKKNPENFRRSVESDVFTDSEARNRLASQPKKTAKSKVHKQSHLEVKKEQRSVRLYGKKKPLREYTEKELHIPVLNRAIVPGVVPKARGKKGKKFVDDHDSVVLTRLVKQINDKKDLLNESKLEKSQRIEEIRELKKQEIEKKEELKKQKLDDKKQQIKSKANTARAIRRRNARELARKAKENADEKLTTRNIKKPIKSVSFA

[2] = target: T2, Gsm1p (Pichia pastoris (Komagataella phaffii), strain SMD1168?) (UniProt C4R1K8)
T2 sequence: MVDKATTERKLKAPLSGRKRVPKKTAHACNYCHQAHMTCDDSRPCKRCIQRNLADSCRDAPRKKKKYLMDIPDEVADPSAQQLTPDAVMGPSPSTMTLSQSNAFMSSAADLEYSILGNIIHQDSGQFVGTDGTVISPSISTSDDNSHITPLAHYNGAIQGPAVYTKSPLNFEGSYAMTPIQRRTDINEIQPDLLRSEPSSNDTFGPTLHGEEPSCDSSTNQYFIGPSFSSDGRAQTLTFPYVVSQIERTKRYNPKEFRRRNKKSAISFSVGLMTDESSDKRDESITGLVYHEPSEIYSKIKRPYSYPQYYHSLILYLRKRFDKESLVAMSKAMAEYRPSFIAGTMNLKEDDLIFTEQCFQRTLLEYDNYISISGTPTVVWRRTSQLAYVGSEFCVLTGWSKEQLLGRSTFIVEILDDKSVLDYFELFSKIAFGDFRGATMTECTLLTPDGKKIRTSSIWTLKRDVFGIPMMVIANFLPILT

[3] = target: T3, Hot1p (Pichia pastoris (Komagataella phaffii), strain SMD1168?) (UniProt C4QW90)
T3 sequence: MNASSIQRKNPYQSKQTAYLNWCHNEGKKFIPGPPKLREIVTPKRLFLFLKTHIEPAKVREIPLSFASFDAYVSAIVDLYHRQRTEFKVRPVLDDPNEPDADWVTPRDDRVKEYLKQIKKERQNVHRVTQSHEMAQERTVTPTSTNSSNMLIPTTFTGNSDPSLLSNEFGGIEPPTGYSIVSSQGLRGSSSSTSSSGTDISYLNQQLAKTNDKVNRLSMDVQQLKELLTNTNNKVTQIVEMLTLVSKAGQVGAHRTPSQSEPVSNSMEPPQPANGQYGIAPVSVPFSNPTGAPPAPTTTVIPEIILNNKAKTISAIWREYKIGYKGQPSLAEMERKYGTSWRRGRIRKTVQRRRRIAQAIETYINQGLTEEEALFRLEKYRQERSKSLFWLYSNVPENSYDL

Sequence | binding [1] | binding [2] | binding [3]
AGATCTTTTTTGTAGAAATGTCTTGGTGTCCTCGTCCAATCAGGTAGCCATCTCTGAAATATCTGGCTCCGTTGCAACTCCGAACGACCTGCTGGCAACGTAAAATTCTCCGGGGTAAAACTTAAATGTGGAGTAATGGAACCAGAAACGTCTCTTCCCTTCTCTCTCCTTCCACCGCCCGTTACCGTCCCTAGGAAATTTTAC (double strand) [pGAP-AB] | binds | binds | binds
AGCAGCCCAGGGATGGAAAAGTCCCGGCCGTCGCTGGCAATAATAGCGGGCGGACGCATGTCATGAGATTATTGGAAACCACCAGAATCGAATATAAAAGGCGAACACCTTTCCCAATTTTGGTTTCTCCTGACCCAAAGACTTTAAATTTAATTTATTTGTCCCTATTTCAATCAATTGAACAACTATTTCGAAACG (double strand) [pGAP-CD] | no binding | binds | binds
CATGCGTCCGCCCGCTATTATTGCCAGCGACGGCCGGGACTTTTCCATCCCTGGGCTGCTAGGTCGGGTACACGACCTCCGTTTTACCCGCAACGTAATGCTGGGAAGAGCATTGCTGCAAGGGGGCCGTAGAAGAAGCTCTCCAGCAGAGTAAAATTTCCTAGGGACGGTAACGGGCGGTGGAAGGAGAGAGAAGGGAAGAGA (double strand) [pGAP-BC] | binds | binds | binds
